Numbering of substitutions follows the chain as printed.
Experiments:
Test in all cases: cleavage_in_vitro
[1] = system: T1, AvrII (Anabaena variabilis); details: NEB4, 37 C, Mg2+
T1 sequence: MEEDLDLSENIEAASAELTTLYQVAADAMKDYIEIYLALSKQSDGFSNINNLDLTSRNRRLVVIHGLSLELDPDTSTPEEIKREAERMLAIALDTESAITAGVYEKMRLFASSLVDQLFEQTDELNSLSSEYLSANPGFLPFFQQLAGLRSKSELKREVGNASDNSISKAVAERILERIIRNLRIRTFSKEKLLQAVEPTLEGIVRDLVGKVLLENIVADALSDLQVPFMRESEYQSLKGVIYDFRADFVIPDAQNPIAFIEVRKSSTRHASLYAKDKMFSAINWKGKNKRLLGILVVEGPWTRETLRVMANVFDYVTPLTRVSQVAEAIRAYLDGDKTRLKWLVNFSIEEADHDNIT

[2] = system: T2, AvrII-HF Y104F (Anabaena variabilis); details: NEB4, 37 C, Mg2+
T2 sequence: T1 sequence with Y104F

[3] = target: T3, PvuII-HF T46G (Proteus vulgaris) (UniProt P23657); details: NEB4, 37 C, Mg2+
T3 sequence: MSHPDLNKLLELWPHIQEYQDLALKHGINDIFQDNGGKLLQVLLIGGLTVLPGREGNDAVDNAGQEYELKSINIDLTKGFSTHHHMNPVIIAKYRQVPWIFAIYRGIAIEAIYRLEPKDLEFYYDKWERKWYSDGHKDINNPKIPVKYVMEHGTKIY

[4] = target: T4, SalI-HF R107A (Streptomyces albus G) (UniProt Q53608); details: NEB4, 37 C, Mg2+
T4 sequence: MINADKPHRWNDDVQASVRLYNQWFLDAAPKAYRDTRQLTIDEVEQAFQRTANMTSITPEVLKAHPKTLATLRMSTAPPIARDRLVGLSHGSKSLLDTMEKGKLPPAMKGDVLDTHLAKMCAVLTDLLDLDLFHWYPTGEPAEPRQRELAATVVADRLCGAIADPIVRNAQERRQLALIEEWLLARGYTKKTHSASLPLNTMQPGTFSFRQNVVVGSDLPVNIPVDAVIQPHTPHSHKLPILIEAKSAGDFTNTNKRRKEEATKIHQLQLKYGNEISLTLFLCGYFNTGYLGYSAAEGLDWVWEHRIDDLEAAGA

[5] = target: T5, SalI (Streptomyces albus G) (UniProt Q53608); details: NEB4, 37 C, Mg2+
T5 sequence: T4 sequence with A107R

[6] = system: T6, BspQI-HF K279P/R388F (Bacillus sphaericus); details: NEB4, 50 C, Mg2+
T6 sequence: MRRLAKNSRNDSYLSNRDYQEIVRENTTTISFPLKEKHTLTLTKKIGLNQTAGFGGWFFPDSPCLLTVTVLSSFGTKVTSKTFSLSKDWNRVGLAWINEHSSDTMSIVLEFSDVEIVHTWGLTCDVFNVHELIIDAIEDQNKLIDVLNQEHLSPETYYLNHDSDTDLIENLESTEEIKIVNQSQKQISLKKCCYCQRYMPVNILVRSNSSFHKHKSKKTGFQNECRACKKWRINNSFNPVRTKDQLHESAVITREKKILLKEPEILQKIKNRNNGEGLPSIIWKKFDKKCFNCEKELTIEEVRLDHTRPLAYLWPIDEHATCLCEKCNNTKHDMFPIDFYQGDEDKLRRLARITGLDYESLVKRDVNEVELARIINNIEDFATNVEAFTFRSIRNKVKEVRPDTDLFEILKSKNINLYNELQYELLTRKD

Substance: T7 DNA
- activity (fidelity index) [1]: 32
- activity (fidelity index) [2]: > 1000

Substance: pBR322
- activity (fidelity index) [3]: 500

Substance: lambda DNA HindIII digest
- activity (fidelity index) [4]: > 32000
- activity (fidelity index) [5]: 1

Substance: pUC19
- activity (fidelity index) [6]: > 4000

— patent publication US20130115677
